# Laboratory results: IntAct's records for PubMed 16368681
# B1: Protein disulfide-isomerase (Saccharomyces cerevisiae), P17967 (parent)
# chain: MKFSAGAVLSWSSLLLASSVFAQQEAVAPEDSAVVKLATDSFNEYIQSHDLVLAEFFAPWCGHCKNMAPEYVKAAETLVEKNITLAQIDCTENQDLCMEHNIPGFPSLKIFKNSDVNNSIDYEGPRTAEAIVQFMIKQSQPAVAVVADLPAYLANETFVTPVIVQSGKIDADFNATFYSMANKHFNDYDFVSAENADDDFKLSIYLPSAMDEPVVYNGKKADIADADVFEKWLQVEALPYFGEIDGSVFAQYVESGLPLGYLFYNDEEELEEYKPLFTELAKKNRGLMNFVSIDARKFGRHAGNLNMKEQFPLFAIHDMTEDLKYGLPQLSEEAFDELSDKIVLESKAIESLVKDFLKGDASPIVKSQEIFENQDSSVFQLVGKNHDEIVNDPKKDVLVLYYAPWCGHCKRLAPTYQELADTYANATSDVLIAKLDHTENDVRGVVIEGYPTIVLYPGGKKSESVVYQGSRSLDSLFDFIKENGHFDVDGKALYEEAQEKAAEEADADAELADEEDAIHDEL
# B2: Protein disulfide-isomerase (Saccharomyces cerevisiae), P17967 (parent)
# chain: B1 chain
# partner: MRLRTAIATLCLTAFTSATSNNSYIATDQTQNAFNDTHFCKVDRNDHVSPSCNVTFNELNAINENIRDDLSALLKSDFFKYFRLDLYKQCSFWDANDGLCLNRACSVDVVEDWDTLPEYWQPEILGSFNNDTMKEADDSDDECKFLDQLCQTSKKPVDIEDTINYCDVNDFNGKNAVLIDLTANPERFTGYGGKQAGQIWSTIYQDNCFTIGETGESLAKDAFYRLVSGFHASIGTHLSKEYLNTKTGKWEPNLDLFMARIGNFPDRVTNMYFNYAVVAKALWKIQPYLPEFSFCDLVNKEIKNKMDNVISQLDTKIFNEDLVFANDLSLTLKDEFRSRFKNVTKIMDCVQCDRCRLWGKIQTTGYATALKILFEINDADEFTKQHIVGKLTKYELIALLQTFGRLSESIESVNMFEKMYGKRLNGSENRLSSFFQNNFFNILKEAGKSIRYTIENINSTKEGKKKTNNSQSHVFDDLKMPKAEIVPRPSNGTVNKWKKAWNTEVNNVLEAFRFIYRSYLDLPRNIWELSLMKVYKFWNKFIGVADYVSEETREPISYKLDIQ
# Variants of: B1
# Conditions: with rnas1_bovin RNASE1, P61823
# Chain of rnas1_bovin RNASE1, P61823 (P61823 whole entry): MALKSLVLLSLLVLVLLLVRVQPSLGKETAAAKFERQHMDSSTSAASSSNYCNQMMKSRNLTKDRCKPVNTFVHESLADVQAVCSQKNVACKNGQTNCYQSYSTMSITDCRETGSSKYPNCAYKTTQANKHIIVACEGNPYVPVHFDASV
row,effect of a mutation on the interaction,Variant
1,decreasing interaction,C406A;C409A
2,decreasing interaction,C61A;C64A

# Variants of: B2
# Conditions: with ero1_yeast ERO1, Q03103
row,effect of a mutation on the interaction,Variant
1,decreasing interaction,C406A;C409A
2,decreasing interaction,C61A;C64A
